Data reported in patent US20190240316A1 (published 2019).
Residue numbers refer to the chain shown, from its start.

B1: 3J20 (Fab, V domains shown)
VH: EVQLVESGGGLVQPGGSLRLSCAASGFTFSSFTMNWVRQAPGKGLQWVSTISGSGGLTYYADSVKGRFTISRDNSKNTLSLQMNSLRAEDTAVYYCARDLEFTVTSYGGYYFEYWGQGTLVTVSS
VL: not shown
B2: 14N4 (Fab, V domains shown)
VH: QVQLVESGGGLIQPGGSLRLSCAVSGFTVSSKYMTWVRQAPGKGLEWVSVIYGGGSTYYADSVVGRFTISRDNSKNTLYLQMNSLRAEDTAVYYCASRLGVRATTGDLDYWGQGTLVTVSS
VL: QIVMTQSPSTLSASVGDRVTITCRASQSISSWLAWYQQKPGKAPKLLIYDASSLESGVPSRFSGSGSGTEFTLTISSLQPDDFATYYCQQYNTYSWWTFGQGTKVEIK
B3: 13A8 (Fab, V domains shown)
VH: QVQLVESGGGVVQPGKSLRLSCAASGYIFSSYDMHWVRQAPGKGLEWVAVISFDGTTQHYADSVRGRFTVSRDNSQNTVFLQMNSLRPEDTAVYYCVKEYVIVSTFFDYWGQGTLVTVSS
VL: DIVMTQSPSSLSASVGDRVTITCRASQGIRNALGWYQHKPGKAPKVLIYAASRLQSGVPSRFSGSGSGTDFTLTISSLQPEDFATYYCLQDFNYPWTFGHGTKVEIK
B4: Motavizumab (antibody, V domains shown)
VH: QVTLRESGPALVKPTQTLTLTCTFSGFSLSTAGMSVGWIRQPPGKALEWLADIWWDDKKHYNPSLKDRLTISKDTSKNQVVLKVTNMDPADTATYYCARDMIFNFYFDVWGQGTTVTVSS
VL: DIQMTQSPSTLSASVGDRVTITCSASSRVGYMHWYQQKPGKAPKLLIYDTSKLASGVPSRFSGSGSGTEFTLTISSLQPDDFATYYCFQGSGYPFTFGGGTKVEIK
B5: Palivizumab (antibody, V domains shown)
VH: B4 VH with A32S, H60D, D67S, D100S, F103T, F105W, Q112A
VL: B4 VL with S24K, A25C, S26Q, S27L, R28S, V103L
B6: 3J20 (antibody, V domains shown)
VH: B1 VH
VL: not shown
B7: 14N4 (antibody, V domains shown)
VH: B2 VH
VL: B2 VL
B8: 13A8 (antibody, V domains shown)
VH: B3 VH
VL: B3 VL

Molecular target: FFL_001
Assay: SPR

| Binder | Kd [nM] |
| --- | --- |
| B1 | 1.05 |
| B2 | 1.37 |
| B3 | 0.2 |

Molecular target: FFL_001
Assay: ELISA; printed as ng/uL

| Binder | EC50 [µg/mL] |
| --- | --- |
| B4 | 10.4 |
| B5 | 49 |
| B6 | 11.1 |
| B7 | 19.3 |
| B8 | 17.9 |

Molecular target: RPM
Assay: ELISA; printed as ng/uL

| Binder | EC50 [µg/mL] |
| --- | --- |
| B4 | 16.7 |
| B5 | 26.1 |
| B6 | 12.7 |
| B7 | 7.4 |
| B8 | 14.8 |
